For orientation: EC50 means the concentration that produces a half-maximal response. Usually Kd stands for the equilibrium constant for the complex coming apart. The low end stands for a tighter complex, the high end for a looser complex. Usually koff stands for a measure of how fast the partners let go of each other. Low readings indicate a long-lived complex, high ones a short-lived complex. Usually kon stands for the rate constant with which the complex forms. A lower kon goes with slower complex formation.

Residue numbers refer to the chain shown, from its start. Read-outs that look alike come from different tables or passages of the source.

Test [1] addresses T1, human DLL3 on SHP-77 cells (human, UniProt Q9NYJ7 27-618).
T1 construct: also called DLL3-expressing cells (SHP-77)
T1 sequence: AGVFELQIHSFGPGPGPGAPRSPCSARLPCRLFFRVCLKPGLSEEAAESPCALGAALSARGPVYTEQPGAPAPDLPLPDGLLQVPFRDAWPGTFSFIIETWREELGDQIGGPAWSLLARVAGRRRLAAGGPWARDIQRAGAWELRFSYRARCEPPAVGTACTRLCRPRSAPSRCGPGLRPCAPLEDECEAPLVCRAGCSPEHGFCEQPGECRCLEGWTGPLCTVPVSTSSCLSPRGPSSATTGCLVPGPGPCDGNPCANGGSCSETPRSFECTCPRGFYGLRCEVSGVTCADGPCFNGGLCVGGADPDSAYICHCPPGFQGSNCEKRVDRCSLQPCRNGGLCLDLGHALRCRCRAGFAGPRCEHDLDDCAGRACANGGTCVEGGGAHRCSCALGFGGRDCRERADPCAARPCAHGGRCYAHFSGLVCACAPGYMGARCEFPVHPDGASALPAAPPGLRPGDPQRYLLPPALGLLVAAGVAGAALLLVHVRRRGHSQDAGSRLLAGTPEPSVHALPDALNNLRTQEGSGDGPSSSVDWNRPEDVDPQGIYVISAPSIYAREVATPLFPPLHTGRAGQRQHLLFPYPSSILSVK
Briefly: flow cytometry, SHP-77 cells. The method, boiled down: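 Trypsinised SHP-77 cells in 1% BSA/PBS were incubated with antibody (100 nM top, 10-fold steps, 7 concentrations) for 1 h at 4° C. Bound antibody was detected with goat anti-human IgG Fc-PE for 0.5 h at 4° C and read as PE mean fluorescence intensity. EC50 and Top MFI were derived from the curves.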

In test [2] the target is T2, human DLL3 antigen protein (Kactus Biosystems, Cat. No. DLL-HM103) (human, UniProt Q9NYJ7 27-492).
T2 sequence: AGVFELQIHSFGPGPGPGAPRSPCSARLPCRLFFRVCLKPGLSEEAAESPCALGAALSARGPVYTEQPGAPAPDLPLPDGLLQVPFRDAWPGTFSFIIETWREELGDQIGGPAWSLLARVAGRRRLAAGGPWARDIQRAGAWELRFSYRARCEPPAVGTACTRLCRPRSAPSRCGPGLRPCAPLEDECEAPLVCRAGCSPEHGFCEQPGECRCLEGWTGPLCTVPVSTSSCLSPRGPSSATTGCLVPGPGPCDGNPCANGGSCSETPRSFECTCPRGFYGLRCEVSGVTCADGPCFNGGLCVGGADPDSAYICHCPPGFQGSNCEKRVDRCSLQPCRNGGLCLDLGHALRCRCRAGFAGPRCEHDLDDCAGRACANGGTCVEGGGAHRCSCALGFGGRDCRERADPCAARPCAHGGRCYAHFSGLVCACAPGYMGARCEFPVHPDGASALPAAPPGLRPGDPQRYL
Description: SPR (Biacore 8K), antibody captured on anti-human Fc, DLL3 in solution. Here is the method: The affinity and kinetic properties of the humanized anti-DLL3 antibody to human DLL3 were analyzed using a Biacore 8K instrument. CM5 chips were activated with EDC and NHS, followed by immobilization of anti-human Fc murine mAb and blocked with ethanolamine.
Human DLL3 was diluted two-fold serially to serial concentrations (100 nM-0.39 nM) and associated for 90 s and dissociated for 600 s at a flow rate of 50 μL/min.
After completion of each round of the experiment, the captured antibody was removed together with the antigen by washing with a 3M MgCl₂ solution at a flow rate of 30 μL/min for 30 s to complete the regeneration of the chip. The raw data were analyzed using Biacore Insight Evaluation Software (3.0.12.15655) software and fitted with a (1:1) Langmuir model with.
On the technique in general: Surface plasmon resonance follows binding to a sensor surface in real time, without labels.

The target of test [3] is T3, human DLL4 (Sino Biological, Cat. No. 10171-H08H) (human, UniProt Q9NR61 27-529).
T3 construct: also called family protein DLL4
Description: ELISA, plate coated with human DLL4 at 1 ug/mL, OD 450nm. Here is the method:
(§1) The antigenic proteins human DLL1 (SinoBiological, cat. No. 11635-H08H) or human DLL4 (SinoBiological, cat. No. 10171-H08H) were dissolved in 1×PBS at a concentration of 1 μg/mL. […] The antigen was washed three times with PBST, 300 μL/well. The antigen was blocked with 1% BSA (in PBST), 200 µL/well, and incubated at 37° C. for 1.5 hours.
(§2) Antibodies to be tested were diluted with 1% BSA (in PBS) at a starting concentration of 100 nM, downwards by a 10-fold gradient for 7 concentrations. The plates were washed three times with PBST, 300 μL/well. The diluted antibody was added to an ELISA plate at 100 μL/well and incubated at room temperature for 2 hours. The antibodies were washed three times with PBST, 300 μL/well. The secondary antibodies (goat anti-human IgG Fc for DLL4 (HRP), 1:20000 dilution; HRP goat anti-mouse IgG (H+L) for DLL1, 1:10000 dilution) were diluted with 1% BSA in PBST. The diluted secondary antibodies were added to the ELISA plate at 100 μL/well and incubated at room temperature for 1 hour. The plates were washed 6 times with PBST, 300 μL/well. The developing solution (TMA and TMB 1:1 mixed) was prepared. The developing solution was added to the plate, 100 μL/well, and incubated in the dark for 5 min. 50 μL of ELISA stop solution was added to the plate and shaken well.
Background: An ELISA detects its analyte on a solid surface through an enzyme-linked reagent.

The target of test [4] is T4, human DLL1 (Sino Biological, Cat. No. 11635-H08H) (human, UniProt O00548 18-545).
T4 construct: also called family protein DLL1
T4 sequence: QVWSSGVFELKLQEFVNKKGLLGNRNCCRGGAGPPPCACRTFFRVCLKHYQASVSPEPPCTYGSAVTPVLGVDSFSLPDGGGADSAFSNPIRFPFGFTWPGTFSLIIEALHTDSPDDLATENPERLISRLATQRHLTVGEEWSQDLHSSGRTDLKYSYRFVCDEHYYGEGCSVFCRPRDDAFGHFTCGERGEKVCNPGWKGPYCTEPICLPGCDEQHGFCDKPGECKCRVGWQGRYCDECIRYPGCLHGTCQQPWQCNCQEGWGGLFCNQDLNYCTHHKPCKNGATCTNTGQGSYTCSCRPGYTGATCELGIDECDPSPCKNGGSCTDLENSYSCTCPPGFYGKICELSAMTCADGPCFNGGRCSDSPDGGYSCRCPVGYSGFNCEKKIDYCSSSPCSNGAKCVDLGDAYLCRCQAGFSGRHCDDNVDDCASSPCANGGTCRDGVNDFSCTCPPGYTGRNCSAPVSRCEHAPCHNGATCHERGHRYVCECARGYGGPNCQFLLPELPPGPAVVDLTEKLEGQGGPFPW
Description: ELISA, plate coated with human DLL1 at 1 ug/mL, OD 450nm. Here is the method:
as §1, §2

Test [5] addresses T2, human DLL3 antigen protein (Kactus …). Description: affinity assay with human DLL3 antigen protein (kinetics; method not restated, Biacore as in Example 10 implied).
Test [6] deals with T1, human DLL3 on SHP-77 cells. Briefly: flow cytometry, SHP-77 cells. This is another data set of the same source. For orientation: In flow cytometry, cells or beads pass a laser one at a time.

T3 sequence (Q9NR61 27-529 limits assumed): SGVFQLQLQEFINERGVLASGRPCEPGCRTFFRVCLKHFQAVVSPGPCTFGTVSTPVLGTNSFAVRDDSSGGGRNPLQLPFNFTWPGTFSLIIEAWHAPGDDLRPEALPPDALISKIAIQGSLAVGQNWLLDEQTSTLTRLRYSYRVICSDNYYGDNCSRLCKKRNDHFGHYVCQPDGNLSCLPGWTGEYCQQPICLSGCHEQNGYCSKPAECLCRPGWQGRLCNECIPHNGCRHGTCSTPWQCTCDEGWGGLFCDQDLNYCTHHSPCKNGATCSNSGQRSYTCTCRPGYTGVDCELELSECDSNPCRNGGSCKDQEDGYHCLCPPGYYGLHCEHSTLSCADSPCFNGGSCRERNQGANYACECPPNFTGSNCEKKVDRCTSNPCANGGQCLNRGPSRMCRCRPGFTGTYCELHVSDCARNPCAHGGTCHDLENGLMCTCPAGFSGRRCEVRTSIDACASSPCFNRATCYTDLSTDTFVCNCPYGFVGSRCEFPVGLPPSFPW

B1: H2-45E4D7 mouse hybridoma-derived humanized anti-DLL3 antibody (antibody, V domains shown)
VH: QVQLVQSGAEVKKPGASVKVSCKASGYTFTSHWITWVRQAPGQGLEWMGDIYPISGSTNNNEKFRNRVTMTRDTSTSTVYMELSSLRSEDTAVYYCAKIITVGGAYVMDYWGQGTLVTVSS
VL: EIVMTQSPATLSVSPGERATLSCRASQSVRNNLHWYQQKPGQAPRLLIKYVSQSISGIPARFSGSGSGTEFTLTISSLQSEDFAVYYCQQSNSWPLTFGGGTKLEIK
B1: in test [1], the concentration giving a half-maximal response (EC50) was determined as 2.23 nM and the “Top MFI” value is 1610 MFI. For the same molecule, in test [2], the Kd worked out at 0.246 nM, the off-rate (koff) is 5.78e-05 s⁻¹ and the on-rate constant (kon) is 235000 M⁻¹ s⁻¹. The binding result in test [3] is “no binding (tested: 100 nM)”. Moreover, the binding result in test [4] was “no binding (tested: 100 nM)”.

B2: hDLL3-3-1-NA humanized antibody variant (antibody, V domains shown)
VH: EVQLVESGGGLVQPGGSLRLSCAASTYTISSGYMGWFRQAPGKEREGVAAIYIGGSTTLYADSVKGRFTISRDNSKNTLYLQMNSLRAEDTAVYYCAAQLRPNAAYHPLDGRKYNYWGQGTLVTVSS
With B2, in test [5], the affinity, expressed as Kd, was 0.105 nM; the off-rate (koff) is 0.000135 s⁻¹; the kon is 1.29e+06 M⁻¹ s⁻¹. In addition, in test [6], a half-maximal response (EC50) required 0.104 nM and the “Top MFI” value is 1270 MFI.

B3: hDLL3-3-1-QS humanized antibody variant (antibody, V domains shown)
VH: B2 VH with N103Q, A104S
Turning to B3, in test [5], binding was put at a Kd of 5.02 nM, the off-rate constant (koff) worked out at 0.00611 s⁻¹ and the on-rate (kon) amounted to 1.22e+06 M⁻¹ s⁻¹. In addition, in test [6], the EC50 came to 0.055 nM and the “Top MFI” value was found to be 1010 MFI.

Values taken from patent US20240239878A1 (SHANGHAI QILU PHARMACEUTICAL RESEARCH AND DEVELOPMENT CENTRE, published 2024).
